Measured values: paper PMC7815789, “Degradation of complex arabinoxylans by human colonic Bacteroidetes” (Nature Communications, 2021)

Target: the molecule itself
Test: crystal structure; seleno-methionine-labeled BACINT_01033-CE1, 20 mg/ml in 50 mM Tris pH 7.5, 150 mM NaCl; sitting drop, room temperature; P3_(1)21 form from 0.1 M BIS-Tris pH 6.5, 20% PEG 1,500; dimer in the asymmetric unit

B1: BACINT_01033-CE1 (carbohydrate esterase family 1, ferulic acid esterase) (enzyme, Bacteroides intestinalis DSM 17393)
chain: QQQDFPAGTTPNEHNINGADYPRIGEDRRVHFRIHAPNAQKVEISFRGEMTKEADGYWSLVSKEPEVIGFHYYQVIIDGVSAADPNGKPFFGMGKWVSGIEIPEKGVDYYSIKNVPHGLISQSWYYSDIRKEWRRCIVYTPAEYDKNPTKKYPVLYLQHGMGENETSWANQGKMNFIMDNLIAEGKAKPMIVVMDNGNIEVFKTNSGETPEDARKRFGAEFPAILVNEIIPHIESNFRTLTDRDNRAMAGLSWGGLLTFNTTLNNLDKFAYIGGFSGAGSIDLKQLDTVYGGVFKNRKAFNDKVHVFFLGIGSEEHPERTKNLSDGLQAAGINTIYYESPGTAHEFLTWRRCLKEFAPLLFKTK
modifications: seleno-methionine-labeled
notes: BACINT_01033-CE1 of Bacteroides intestinalis DSM 17393; N-terminal Ig-like fold of ~100 residues followed by the esterase domain (residues 126-383); predicted signal peptide; Cloned NdeI/XhoI into pET-28a; also called Bi1033-CE1; Bi1033; source: E. coli BL21 (DE3), seleno-methionine-labeled, purified (HisTrap, Superdex 200)
**Q.** For B1, which “stoichiometry N” value is on record?
**A.** 2
